Reference: patent US20150140043A1, “IMMUNOMODULATORY METHODS USING NOTCH AGONISTS” (INSTITUT NATIONAL DE LA SANTE DE LA RECHERCHE MEDICAL …, priority 2012, published 2015)

Key:
[1] = biological target: NOTCH on human CD4+CD25- effector T cells; experiment: cell-based or functional assay
[2] = system: CD4+CD25- T cell proliferation; experiment: Suppression assay: CD4+CD25- T cells co-cultured with Treg plus anti-CD3, with or without g-secretase inhibitor, [3H]thymidine incorporation; assay type: cell-based, human; conditions: for Treg-mediated suppression (percentage of inhibition of CD4+CD25- T cell proliferation): GSI added at the beginning of the coculture (10 μM), anti-CD3 1 μg/ml, 5 days, mean+/-SD
Description: FIG. 1: NOTCH signalling is involved in Treg mediated inhibition of anti-CD3 stimulated CD4^+CD25^− T cell proliferation • A) Various ratio of CD4^+CD25^− T cells and CD4^+CD25^high T cells were cultured for 5 days in coated wells with anti-CD3 (1 μg/ml) in the presence or not of inhibitor of g-secretase (GSI 10 μM). Percentages of inhibition were calculated from the raw data using the equations: 1—(mean cpm of co-culture wells divided by mean cpm of CD4^+CD25^− cells cultured alone)×100. The data represent the mean±SEM and are representative of 5 independent experiments. * indicates P<0.05. • B) CD4^+CD25^−T cells were cultured for 18 hours in coated wells with anti-CD3 and NOTCH ligands (5 μg/ml) or IgG control (5 μg/ml). Then, T cells were washed and incubated for 5 days in coated wells with anti-CD3 in the absence or presence of Treg at ratio 1:8. The data represent the mean±SEM of inhibition of T cell proliferation of 5 independent experiments.
Peripheral blood mononuclear cells were separated by Ficoll-Hypaque centrifugation (Amersham Biosciences) from buffy coats obtained from healthy blood donors (EFS, Créteil). CD4^+ CD25^− T cells and CD4^+CD25^high T cells were isolated using a CD4^+ T cell enrichment column and a human CD4^+CD25^+ Treg isolation kit purchased from Miltenyi Biotec. CD4^+CD25^− cells and CD4^+CD25^+ cells were enriched to greater than 95% purity. […]
A total of 2.5×10^4 CD4^+CD25^− T cells were cultured with various ratios of CD4^+CD25^high cells and 1 μg/ml of anti-CD3 for 5 days, in the presence or absence of 10 μm of the gamma-secretase inhibitor Compound E. A total of […] [^3H] thymidine (Amersham Pharmacia) was added to the wells during the last 16 hours of culture. The cells were then harvested and assessed for [^3H] thymidine incorporation using a liquid scintillation counter. Results were expressed as mean cpm of quadriplicate culture wells.
Percentage of inhibition was calculated as follows: 1−(mean cpm of co-culture wells divided by mean cpm of CD4^+CD25^− cells cultured alone)×100. […]

TGF-βRII RNA expression = experiment: Quantitative real-time PCR of TGF-βRII transcripts in CD4+CD25- T cells; assay type: cell-based, human; conditions: coated anti-CD3 and DL-4 or Jagged-1 for 3 hours, in the presence of GSI
Description: FIG. 3: TGF-βRII expression on effector T cells after NOTCH ligands exposure • A) CD4^+CD25^−T cells were purified using Miltenyi microbeads from PBMC and cultured for 3 hours in coated wells with anti-CD3 (200 ng/ml) and NOTCH ligands (5 μg/ml) or IgG control (5 μg/ml). Quantitative real-time PCR was performed to measure the transcripts levels of TGF-βRII. Data shown are mean±SEM and are representative of 4 independent experiments. * indicates P<0.05. • B) Protein levels of TGF-βRII in CD4^+CD25^−T cells stimulated to DL-1, DL-4 and Jagged-1 using FACS analysis. Mean of fluorescence are represented±SEM. * indicates P<0.05.
CD4^+CD25^− T cells were cultured for 3 hours in coated wells with anti-CD3 (200 ng/ml) and NOTCH ligands (5 μg/ml) or IgG control (5 μg/ml). Total RNA was extracted with Trizol (Invitrogen) and purified by chloroform extraction. RNA was then reverse transcribed using 1 mM oligodT and the Superscript™ HH Rnase H-reverse transcriptase (Invitrogen Life technologies) according to the manufacturer's instructions. Quantitative PCR was performed in a LightCycler System (Roche diagnostics) using a SYBR Green PCR kit from Roche Diagnostics. The cDNA input for each population was normalized to obtain equivalent signals with Splicing Factor 3A1 (SF3A1) used as housekeeping gene. Primers used were: […]
Active TGF-β mediates its biological functions by binding to TGF-β type I and type II receptors (TGF-βRII). Therefore, the effects of NOTCH activation on TGF-βRII expression of effector T cells were first investigated. […] This effect is abrogated in the presence of GSI (P<0.05 for comparison with culture performed without GSI vehicle).

Compound | Percentages of inhibition of cell proliferation (CD4+CD25- T cells pre-exposed to ligand, co-cultured with Treg at ratio 1:8) [1] | expression of TGF-βRII on CD4+CD25- T cells after 48 hours on ligand (flow cytometry, MFI; IgG control MFI 53) [1] | percentage of inhibition of CD4+CD25- T cell proliferation with anti-CD3, ligand and TGF-β (0.1 ng/ml) [1] | Treg-mediated suppression (percentage of inhibition of CD4+CD25- T cell proliferation) ([2]; Treg/Effector ratio 1:4) | Treg-mediated suppression (percentage of inhibition of CD4+CD25- T cell proliferation) ([2]; Treg/Effector ratio 1:8) | Effect on proliferation of CD4+CD25- T cells cultured alone ([2]; no Treg, data not shown) | Effect of GSI on the DL-4 / Jagged-1 induced increase in TGF-βRII RNA expression (TGF-βRII RNA expression) | TGF-βRII RNA expression, fold increase against IgG control (real-time PCR, 3 hours) [1] | mean inhibition of T cell proliferation (co-culture with Treg at ratio 1:16 on immobilized ligand) [1]
DL-1-Fc (from UniProt O00548 18-545) (Fc fusion) | 64.8% | 85 MFI | 42.9% | – | – | – | – | – | –
C[C@H](NC(=O)Cc1cc(F)cc(F)c1)C(=O)N[C@H]1N=C(c2ccccc2)c2ccccc2N(C)C1=O [GSI, Compound E] | – | – | – | 46.9% | 49.3% | did not affect the proliferation | abrogated | – | –
DL-4-Fc (from UniProt Q9NR61 27-529) (Fc fusion) | 64.2% | 166 MFI | 74.1% | – | – | – | – | 4.4 fold | 47%
Jagged-1-Fc (from UniProt P78504 34-1067) (Fc fusion) | 65% | 130 MFI | 87.8% | – | – | – | – | 2.8 fold | 65%
